From patent US20210231650A1

Biological target: RGD peptide
Test: single-molecule conductance, electrodes carrying RGD peptide

Substance: αvβ3 integrin (receptor)
- single-molecule conductance peak G: 0.3 nS
